Data as given in patent US20210371505A1.

Key:
Assay in all cases: cell-based or functional assay
[1] = target: Hemagglutinin of influenza virus A/Shanghai/01/2013-PR8 (H7N9) (Influenza A virus A/Shanghai/01/2013-PR8 (H7N9))
[2] = target: Hemagglutinin of influenza virus A/Aichi/02/1968-PR8-X31 (H3N2) (Influenza A virus A/Aichi/02/1968-PR8-X31 (H3N2)) (UniProt P03437)
[3] = target: Hemagglutinin of influenza virus A/Philippines/01/1982 (H3N2) (Influenza A virus A/Philippines/01/1982 (H3N2))

Irrelevant/negative hIgG1 control (antibody)
IC50 of neutralization, cell viability microneutralization assay on MDCK cells [1]: > 6.67 µM | IC50 of neutralization, cell viability microneutralization assay on MDCK cells [2]: > 0.833 µM | IC50 of neutralization, cell viability microneutralization assay on MDCK cells [3]: > 3.33 µM
